Results as given in patent publication US20140127139A1 (GUERBET, published 2014).
No end group written: not given here.

Legend:
[1] = target: T1, rat MUC5AC glycoprotein purified from rat stomach (rat); assay: ELISA; MUC5AC purified from rat stomach immobilized, biotinylated peptide; apparent Kd
T1 construct: Native glycoprotein purified from tissue; also called murine (rat) gastric MUC5AC
Procedure: (§1) The interaction between the peptide and MUC5AC is evaluated by means of an ELISA assay. The mucin MUC5AC (purified from pieces of human tumor on the basis of mucin extraction and purification protocols described in literature) is immobilized on a plate at the concentration of 12.5 μg/ml overnight at 4° C. The nonspecific sites are then saturated in a buffer enriched with milk, for 2 hours at 4° C. After several rinses, the peptide […] coupled to biotin is incubated at increasing concentrations (10⁻³M and 10⁻⁶M) for 2 hours at 37° C. The biotinylated peptides bound to MUC5AC are visualized using goat anti-biotin antibodies incubated for one hour at ambient temperature and then diluted in PBS at 1 μg/ml. After removal of the unbound antibodies, a second incubation for one hour at ambient temperature is carried out in the presence of peroxidase-labeled anti-goat antibodies at 0.2 μg/ml, diluted in PBS supplemented with 0.1% of Tween-20. The peroxidase coloration reaction is carried out in the presence of H₂O₂-enriched ABTS. The measurement of the OD at 405 nm makes it possible to calculate the K*d MUC5AC value.
(§2) The interaction between the peptide and MUC5AC is also evaluated by means of the previously described ELISA assay on the mucin MUC5AC purified beforehand from mouse and rat stomach.

[2] = target: T2, mouse MUC5AC glycoprotein purified from mouse stomach (mouse); assay: ELISA; MUC5AC purified from mouse stomach immobilized, biotinylated peptide; apparent Kd
T2 construct: Native glycoprotein purified from tissue; Also used here as the target for the in vivo mouse stomach signal (MUC5AC in situ); also called murine (mouse) gastric MUC5AC
Procedure: as §1, §2

[3] = target: T3, native MUC5AC secreted by HT29-5M21 human colonic adenocarcinoma cells (human, UniProt P98088 28-5654, O-glycosylated mucin); assay: cell ELISA on HT29 5M21 cells secreting MUC5AC, biotinylated peptide, OD 405 nm; apparent Kd
T3 construct: whole, on cells; A secreted mucin on the cell layer, not a membrane protein; also called MUC5AC cells; MUC5AC directly after secretion on secretory human adenocarcinoma cells
Procedure: The affinity of the peptide for MUC5AC is calculated from a functional cell assay which consists in measuring the binding of the peptide on a cell model secreting MUC5AC. After 21 days of culture for HT29-5M21 cells and 7 days for HCT116 cells, the cells are rinsed with PBS at 4° C., and then fixed with 1% glutaraldehyde diluted in PBS. The cells are then rinsed again 3 times with PBS at 4° C. and incubated for 2H at ambient temperature with a milk-enriched buffer and for 2H at 37° C. in a concentration range of between 10⁻³M and 10⁻⁶M of biotinylated peptides. The biotinylated peptides bound to the target are visualized using goat anti-biotin antibodies incubated for one hour at ambient temperature (diluted in PBS to 1 μg/ml). A second incubation for one hour at ambient temperature is carried out in the presence of peroxidase-labeled anti-goat antibodies at 0.2 μg/ml, diluted in PBS supplemented with 0.1% of Tween-20. The peroxidase coloration reaction is carried out in the presence of ABTS and the OD measurement is carried out at 405 nm. The cell assay has the advantage of showing affinity data, although its sensitivity can still be improved. The secretion of MUC5AC was indeed verified in the study. The results on human tissues (affinity curve for human MUC5AC also obtained) give very positive results. […]

[4] = target: T4, human MUC5AC mucin purified from pieces of human tumor (human, UniProt P98088 28-5654, limits assumed, O-glycosylated mucin); assay: ELISA; purified human MUC5AC immobilized, biotinylated peptide at increasing concentrations, OD 405 nm; apparent Kd
T4 construct: Native glycoprotein purified from tissue and immobilized on an ELISA plate at 12.5 ug/ml; Also used here as the target for labelling of human tissue sections (MUC5AC in situ); also called human colonic MUC5AC; purified MUC5AC
Procedure: as §1

[5] = target: T5, MUC2 glycoprotein (human, UniProt Q02817 21-5289, limits assumed, O-glycosylated mucin); assay: histological labelling of human colonic adenoma sections with biotinylated peptide, compared with anti-MUC2 antibody labelling
T5 construct: Present in situ in fixed, paraffin-embedded tissue sections; also called major mucin of the intestine
Procedure: Sections of healthy gastric and colonic mucosae and of human colorectal adenoma (5 μm thick) were fixed for 24 h with 4% paraformaldehyde and embedded in paraffin. For the labeling, the sections were first of all deparaffinized in toluene and rehydrateted in 95% alcohol. After rinsing in water, the slides are brought to boiling for 10 minutes in a citrate buffer (50 mM, pH 4). Once the temperature of the buffer has returned to 25-30° C., the slides are then rinsed with PBS and then successively incubated for 15 minutes in a 0.15% hydrogen peroxide (H₂O₂) solution and a kit for blocking the endogenous biotin for 1 h. The sections are then blocked using a milk-enriched buffer for 1 h at ambient temperature, and are then incubated at 4° C. for 18 h with the peptides at various concentrations (20 μM, 10 μM, 1 μM, 0.2 μM, 0.04 μM) or the antibodies (MUC5AC: PM8 at a 1/100 dilution and MUC2: Lum2-3 at a 1/100 dilution) diluted in PBS. The biotinylated peptides bound to the target are visualized using goat anti-biotin antibodies incubated for one hour at ambient temperature and then diluted in PBS at 1 μg/ml. A second incubation for one hour at ambient temperature is carried out in the presence of peroxidase-labeled anti-goat antibodies at 0.2 μg/ml diluted in PBS supplemented with 0.1% of Tween-20. […]

B1: peptide CPSIYPLLC (SEQ ID No. 2) coupled to biotin (peptide)
peptide: CPSIYPLLC
modifications: also: biotin coupled, site not given here, cyclic, closure type not given here
notes: The chemistry of the biotin coupling is not described; also called Cyclic C60
[1]
  Kd: 659 µM
[2]
  Kd: 549 µM
[3]
  Kd: 48 µM
[4]
  Kd: 85 µM
[5]
  binding result: no binding
